Data from US20210155689A1 (SHANGHAI PHARMAEXPLORER, published 2021).

B1: 556F6B8 mouse-human chimeric antibody (antibody, V domains shown)
VH: RVQLKQSGPGLVQPSQSLSITCTVSGFSLIKYGVHWVRQSPGEGLEWLGVIWRGGITDYNAAFMSRLSITKDNSKSQVFFKMNSLQADDTAIYYCAKWDGPLAMDYWGQGTSVTVSS
VL: DIVMTQSHKFLSTSVGDRVSITCKASQDVGTTVAWYQQKPGQSPKLLIYWASTRHTGVPDRFTGSGSGTDFTLTISNVQSEDLADYFCQQYSSYPYTFGGGTKLEIK
notes: also called mAb123-556F6B8; 556F8B8
B2: 556F6B8 (mouse antibody purified from hybridoma) (antibody, V domains shown)
VH: RVQLKQSGPGLVQPSQSLSITCTVSGFSLIKYGVHWVRQSPGEGLEWLGVIWRGGITDYNAAFMSRLSITKDNSKSQVFFKMNSLQADDTAIYYCAKWDGPLAMDYWGQGTSVTVSS
VL: DIVMTQSHKFLSTSVGDRVSITCKASQDVGTTVAWYQQKPGQSPKLLIYWASTRHTGVPDRFTGSGSGTDFTLTISNVQSEDLADYFCQQYSSYPYTFGGGTKLEIK
notes: also called mAb123-556F6B8
B3: 556F6B8 (LAG-3 mouse-human chimeric antibody) (antibody, V domains shown)
VH: RVQLKQSGPGLVQPSQSLSITCTVSGFSLIKYGVHWVRQSPGEGLEWLGVIWRGGITDYNAAFMSRLSITKDNSKSQVFFKMNSLQADDTAIYYCAKWDGPLAMDYWGQGTSVTVSS
VL: DIVMTQSHKFLSTSVGDRVSITCKASQDVGTTVAWYQQKPGQSPKLLIYWASTRHTGVPDRFTGSGSGTDFTLTISNVQSEDLADYFCQQYSSYPYTFGGGTKLEIK
notes: also called 556F8B8
B4: 405B8H3 (mouse antibody purified from hybridoma) (antibody, V domains shown)
VH: QVQLQQSGAELVRPGASVTLSCKASGYTFTDYEMHWVKQTPVHGLEWIGATDPETGNSAYNQKFKGKAIMTADKSSSTAYMELRSLTSEDSAVYYCISTGWNDWGQGTSLTVSS
VL: DIKMTQSPSSMYASLGERVTITCKASQDINSYLSWFQQKPGKSPKTLIYRADRLLDGVPSRFSGSGSGQDYSLTISSLEYGDMGIYYCLQYDEFPYTFGGGTKLEIK
notes: also called mAb103-405B8H3; 405B81-13
B5: 405B8H3 (LAG-3 mouse-human chimeric antibody) (antibody, V domains shown)
VH: QVQLQQSGAELVRPGASVTLSCKASGYTFTDYEMHWVKQTPVHGLEWIGATDPETGNSAYNQKFKGKAIMTADKSSSTAYMELRSLTSEDSAVYYCISTGWNDWGQGTSLTVSS
VL: DIKMTQSPSSMYASLGERVTITCKASQDINSYLSWFQQKPGKSPKTLIYRADRLLDGVPSRFSGSGSGQDYSLTISSLEYGDMGIYYCLQYDEFPYTFGGGTKLEIK
notes: also called mouse-human chimeric antibody 405B8H3
B6: 105F1E10 mouse-human chimeric antibody (antibody, V domains shown)
VH: EVQLQQSGPELVKPGASVKMSCRASGYTFTDFKMHWMKQSHGKSLEWIGYIAPNNGGTAYNQKFRGKATLTVNESSNTAYMELRSLTSEDSAVYYCVDWDDVDYWGQGTTLTVSS
VL: DIKMTQSPSSMYASLGERVTITCKASQDINSYLSWFQQKSGKSPKTLIYRANRLVDGVPSRFSGSGSGQDYSLTISSLEYEDMGIYYCLQYVEFPLTFGAGTKLELK
notes: also called mAb009-105F1E10
B7: 105F1E10 (LAG-3 mouse-human chimeric antibody) (antibody, V domains shown)
VH: EVQLQQSGPELVKPGASVKMSCRASGYTFTDFKMHWMKQSHGKSLEWIGYIAPNNGGTAYNQKFRGKATLTVNESSNTAYMELRSLTSEDSAVYYCVDWDDVDYWGQGTTLTVSS
VL: DIKMTQSPSSMYASLGERVTITCKASQDINSYLSWFQQKSGKSPKTLIYRANRLVDGVPSRFSGSGSGQDYSLTISSLEYEDMGIYYCLQYVEFPLTFGAGTKLELK
B8: 105F1E10 (mouse antibody purified from hybridoma) (antibody, V domains shown)
VH: EVQLQQSGPELVKPGASVKMSCRASGYTFTDFKMHWMKQSHGKSLEWIGYIAPNNGGTAYNQKFRGKATLTVNESSNTAYMELRSLTSEDSAVYYCVDWDDVDYWGQGTTLTVSS
VL: DIKMTQSPSSMYASLGERVTITCKASQDINSYLSWFQQKSGKSPKTLIYRANRLVDGVPSRFSGSGSGQDYSLTISSLEYEDMGIYYCLQYVEFPLTFGAGTKLELK
notes: also called mAb009-105F1E10
B9: 409D4E10 (LAG-3 mouse-human chimeric antibody) (antibody, V domains shown)
VH: QVQLQQSGAELVRPGASVTLSCKASGNTFTDYEMHWVKQTPVHGLEWIGATDPETDNTAYNQKFKGKAILTTDKSSSTAYMELRSLTSEDSAVYYCITSGWNDWGQGTSLTVSS
VL: DIKMTQSPSSMYASLGERVTITCKASQDINSYLSWFQQKPGKSPKTLIYRANRLLDGVPSRFSGSGSGQDYSLTISSLEYEDMGIYYCLQYNEFPYTFGGGTKLEIK
B10: 409B11E12 (LAG-3 mouse-human chimeric antibody) (antibody, V domains shown)
VH: QVQLQQSGAELVRPGASVTLSCKASGYTFTDYEMHWVKQTTVHGLEWIGATDPETSYSAYNQKFKGKAILTADKSSSTAYMELRSLTSEDSAVYYCIATGWNDWGQGTSLTVSS
VL: DLKMTQSPSSMYASLGERVTITCKASQDINSYLSWFQQKPGKSPKTLIYRANRLLDGVPSRFSGSGSGQDYSLTISSLEYEDMGIYYCLQYDEFPYTFGGGTKLEIK
B11: 409D4E10 (mouse antibody purified from hybridoma) (antibody, V domains shown)
VH: QVQLQQSGAELVRPGASVTLSCKASGNTFTDYEMHWVKQTPVHGLEWIGATDPETDNTAYNQKFKGKAILTTDKSSSTAYMELRSLTSEDSAVYYCITSGWNDWGQGTSLTVSS
VL: DIKMTQSPSSMYASLGERVTITCKASQDINSYLSWFQQKPGKSPKTLIYRANRLLDGVPSRFSGSGSGQDYSLTISSLEYEDMGIYYCLQYNEFPYTFGGGTKLEIK
notes: also called mAb112-409D4E10
B12: 409B11E12 (mouse antibody purified from hybridoma) (antibody, V domains shown)
VH: QVQLQQSGAELVRPGASVTLSCKASGYTFTDYEMHWVKQTTVHGLEWIGATDPETSYSAYNQKFKGKAILTADKSSSTAYMELRSLTSEDSAVYYCIATGWNDWGQGTSLTVSS
VL: DLKMTQSPSSMYASLGERVTITCKASQDINSYLSWFQQKPGKSPKTLIYRANRLLDGVPSRFSGSGSGQDYSLTISSLEYEDMGIYYCLQYDEFPYTFGGGTKLEIK
notes: also called mAb104-409B11E12

Tests used:
[1] = biological target: T1, human LAG-3 on cells (HEK293-hLAG-3 stable cell line) (human, UniProt P18627 23-525); experiment: FACS, HEK293-hLAG-3, antibody 8.000 nM
T1 sequence: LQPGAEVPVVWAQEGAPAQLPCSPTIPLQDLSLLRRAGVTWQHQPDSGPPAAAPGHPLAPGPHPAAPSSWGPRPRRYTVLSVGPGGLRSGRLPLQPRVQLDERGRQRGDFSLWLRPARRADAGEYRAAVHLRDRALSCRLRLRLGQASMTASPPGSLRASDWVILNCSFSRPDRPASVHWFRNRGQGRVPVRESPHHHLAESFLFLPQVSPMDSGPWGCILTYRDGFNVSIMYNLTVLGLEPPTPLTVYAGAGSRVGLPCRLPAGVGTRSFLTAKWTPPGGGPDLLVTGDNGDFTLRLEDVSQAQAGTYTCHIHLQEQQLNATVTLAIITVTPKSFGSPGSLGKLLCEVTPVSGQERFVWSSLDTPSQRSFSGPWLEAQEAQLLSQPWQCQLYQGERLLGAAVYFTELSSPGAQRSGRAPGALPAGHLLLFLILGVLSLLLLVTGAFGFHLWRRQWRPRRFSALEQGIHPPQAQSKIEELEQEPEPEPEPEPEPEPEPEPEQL
Source text: (§1) The pIRES plasmid with the monkey-derived full-length gene was transfected into the HEK293 cell line to construct a HEK293 stable cell line containing monkey LAG-3 (herein referred to as HEK293-cLAG-3 stable cell line). The HEK293-hLAG-3 stable cell line and HEK293-cLAG-3 stable cell line were expanded in a T-75 cell culture flask to a 90% confluence. The medium was aspirated, and the cells were washed with HBSS (Hanks' Balanced Salt Solution) 1-2 times, then treated with a enzyme-free cell dissociation fluid (Versene solution: Life technology) and the cells were collected. The cells were washed with HBSS buffer for 1-2 times. After counted, the cells were diluted with HBSS to 1-2×10⁶ cells per ml, added with 1% goat serum blocking solution, incubated on ice for 20-30 minutes, and then washed with HBSS for 2 times by centrifugation. The collected cells were suspended in the FACS buffer (HBSS+1% BSA) to 2×10⁶ cells/ml, added as 100 microliters per well to a 96-well FACS reaction plate, added with 100 microliters per well of the antibody sample to be tested, incubated on ice for 1-2 hours. The plate was washed twice with the FACS buffer by centrifugation, added with 100 microliters of fluorescent (Alexa 488)-labeled secondary antibodies per well, and incubated on ice for 0.5-1.0 hours. The plate was washed 2-3 times with FACS buffer by centrifugation, added with 100 μl fixative solution (4% Paraformaldehyde) per well to suspend the cells. 5-10 minutes later, it was washed 1-2 times with FACS buffer by centrifugation. The cells were suspended with 100 microliters of FACS buffer, FACS (FACSCalibur, BD) was used for detection and the results were analyzed.

[2] = biological target: T2, monkey LAG-3 (full length, on the cell surface) (monkey, UniProt P18627 24-525 (human entry)); experiment: FACS, HEK293-cLAG-3; 0.320 nM
T2 construct: also called HEK293-cLAG-3; monkey LAG-3 protein on the cell surface
T2 chain: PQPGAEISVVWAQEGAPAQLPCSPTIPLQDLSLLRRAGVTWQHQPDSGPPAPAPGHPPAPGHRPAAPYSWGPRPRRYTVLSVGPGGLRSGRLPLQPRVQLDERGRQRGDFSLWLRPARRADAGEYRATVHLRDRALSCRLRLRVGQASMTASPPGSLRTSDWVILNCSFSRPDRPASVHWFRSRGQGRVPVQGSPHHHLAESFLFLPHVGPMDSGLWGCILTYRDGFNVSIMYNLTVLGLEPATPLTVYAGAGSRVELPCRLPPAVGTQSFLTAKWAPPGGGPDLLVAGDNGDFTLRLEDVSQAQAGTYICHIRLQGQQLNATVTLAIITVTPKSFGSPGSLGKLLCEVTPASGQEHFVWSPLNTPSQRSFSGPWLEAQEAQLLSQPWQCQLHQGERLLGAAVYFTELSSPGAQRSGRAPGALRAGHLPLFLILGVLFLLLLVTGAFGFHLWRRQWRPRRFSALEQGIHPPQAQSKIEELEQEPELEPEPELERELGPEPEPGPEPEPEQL
Source text: as §1

[3] = biological target: T2, monkey LAG-3 (full length, on the cell …); experiment: FACS, HEK293-cLAG-3; 1.600 nM
Source text: as §1

[4] = biological target: T3, hFc tagged monkey LAG-3 protein (cLAG-3-hFc protein) (monkey; human); experiment: ELISA, cLAG-3-hFc coated; 0.0001 nM
T3 construct: Made in HEK293 cells; also called monkey LAG-3 extracellular domain protein; not shown: human IgG Fc fragment (hFc) of the pCpC vector
T3 chain: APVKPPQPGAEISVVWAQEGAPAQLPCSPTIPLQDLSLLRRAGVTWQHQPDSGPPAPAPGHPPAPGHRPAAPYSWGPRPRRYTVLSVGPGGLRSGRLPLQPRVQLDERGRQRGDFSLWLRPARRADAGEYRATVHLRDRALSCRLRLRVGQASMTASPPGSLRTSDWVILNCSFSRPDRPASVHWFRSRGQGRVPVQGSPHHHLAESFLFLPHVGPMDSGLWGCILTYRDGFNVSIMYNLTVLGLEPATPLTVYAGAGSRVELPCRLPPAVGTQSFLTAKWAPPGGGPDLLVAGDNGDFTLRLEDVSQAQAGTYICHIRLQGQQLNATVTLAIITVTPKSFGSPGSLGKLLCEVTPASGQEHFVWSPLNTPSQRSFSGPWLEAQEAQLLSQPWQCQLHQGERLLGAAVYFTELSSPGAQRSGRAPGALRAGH
Procedure: The plate was sealed with plastic film and incubated overnight at 4° C. The plate was washed 2 times with the plate washing solution (PBS+0.01% Tween20) on the next day, and added with the blocking solution (PBS+0.01% Tween20+1% BSA) and blocked at room temperature for 1-2 hours. The blocking solution was poured out, and the plate was added with 50-100 μl of the antibody sample to be tested to each well, incubated at 37° C. for 1-2 hours, and washed 2-3 times with a plate washing solution (PBS+0.01% Tween20). HRP (horseradish peroxidase) labeled secondary antibody was added, and the plate was incubated at 37° C. for 1-2 hours, and washed 2-3 times with a plate washing solution (PBS+0.01% Tween20). 100 μl of TMB substrate was added to each well. After incubated at room temperature for 15-30 minutes, the plate was added with 100 μl of stop solution (1.0N HCl) to each well.

| Binder | Mean fluorescence intensity [1] | Mean fluorescence intensity [2] [MFI] | Mean fluorescence intensity [3] [MFI] | OD450 [4] [OD450] |
| --- | --- | --- | --- | --- |
| B1 | 93.5 |  |  |  |
| B2 |  | 9.8 | 24.2 |  |
| B3 |  |  |  | 0.18 |
| B4 |  | 8 | 23 |  |
| B5 |  |  |  | 0.15 |
| B6 | 99.4 |  |  |  |
| B7 |  |  |  | 0.14 |
| B8 |  | 6.6 | 15.4 |  |
| B9 |  |  |  | 0.19 |
| B10 |  |  |  | 0.14 |
| B11 |  | 11.5 | 36.1 |  |
| B12 |  | 8 | 24.4 |  |
